Measurements: patent US20070134657A1, “Methods and compositions relating to gradient exposed cells” (GENERAL HOSPITAL CORPORATION, THE, priority 2002, published 2007)

Assays:
[1] = test system: human neutrophils; test: Effect of signaling pathway inhibitors on directional neutrophil migration in IL-8 gradients (microfluidic device); assay type: cell-based; conditions: pretreated cells; IL-8 gradients in which chemotaxis and fugetaxis were seen
Excerpt: Microfluidic Migration Assay and Timelapse Microscopy: Neutrophils (1×10^3 cells) were placed uniformly across the migration channel and allowed to migrate under a linear gradient of human Interleukin-8 (72 a.a.; PeproTech, Rocky Hill, N.J.) in IMDM with 0.5% (w/v) FCS flowing at 0.1 mm/sec. […] Brightfield images were taken every 30 seconds using a C4742-95 Hamamatsu digital camera (Hamamatsu, Japan) controlled by IPLab 3.6.1 (Scanalytics, Fairfax, Va.). Cell movement was always observed at a set point along the migration channel. Gradients were also calibrated at this set point. Migration was quantified for all cells across the gradient.
Signaling Pathway Inhibitors: Cells were treated with pertussis toxin (100 ng/mL; 30 minutes at 37° C.), wortmannin (1 μM, 10 μM; 20 minutes at 37° C., 8-Br-cAMP (1 mM; 15 minutes at room temperature), 8-Br-cGMP (1 mM; 15 minutes at room temperature) (Sigma-Aldrich), or the CXCR2 non-peptide antagonist, SB225002 (1 pM, 100 pM, 1 nM, or 1 μM for 15 minutes at 37° C.; Calbiochem, Calif.). Immediately after treatment cells were seeded in migration channel of the microfluidic device and allowed to migrate as described above.
Since receptor occupancy is known to play a role in directional decision making and gradient sensing in the context of chemotaxing eukaryotic cells, it was postulated that chemokine receptor occupancy by a chemokine might also play a critical role in the decision of a cell to move up or down a chemokine gradient. Thus, a SB25002, the specific non-peptide antagonist of the IL-8 receptor, CXCR2 was utilized to examine this postulate. Neutrophils were pretreated with SB225002 at concentrations between 1 pM and 1 μM and then exposed to 0 to 1.2 μM gradients of IL-8 in microfabricated devices as described above. Videos of cell migration were analysed using MetaMorph and MathLab software to generate normalized angular frequencies determined for cells migrating in each of the three sectors of the gradient. The absence of inhibitor generates a normalized angular frequency of 1.0 whereas inhibition of fugetactic or chemotactic angular frequencies results in a normalized frequency of <1.0 and augmentation of either directional response results in a value greater than 1. This analysis allows to precisely quantitate the effect of a given concentration of inhibitor on the directional decision of the cell to move up or down a gradient. […] Furthermore, although IL-8 binds to both CXCR2 and CXCR1 on the cell surface, of the human neutrophil bi-directional signaling was evidently critically dependent on CXCR2.
It had been previously shown that the signaling pathway for chemotaxis is distinct from that for chemorepulsion or fugetaxis. […] The study of neutrophil migration in microfabricated devices allows to examine precisely the effects of these inhibitors on quantitative parameters of cell migration including the directional bias of cells in the context of precisely defined and stable chemokine gradients. Primary human neutrophils were pretreated with known inhibitors of the chemokine signal transduction pathway including pertussis toxin, wortmannin, genistein, 8-Br-cAMP and 8-Br-cGMP and then exposed to IL-8 gradients in which chemotaxis and fugetaxis were seen. The effect of the inhibitor on directional migration towards or away from the chemokine was quantitated by determining the directional motility index of cells migrating in the context of these gradients. Movement vector angles corresponding to movement up the gradient (30 to 150 degrees—see FIG. 13) were defined as chemotactic and measured movement vector angles corresponding to movement down the gradient (210 to 330 degrees—see figure) were defined as fugetactic. The directional choice of cells to move up or down a chemokine gradient were therefore compared in the presence and the absence of an inhibitor. […]

[2] = test system: T-cell; conditions: response to SDF-1; cited from earlier work
[3] = test system: rat neutrophils; test: Intravital microscopy of rat neutrophil migration in response to diffusive CINC-1 gradients in mesentery; assay type: in vivo
Experimental: Intravital Microscopy: Male Sprague Dawley rats (200-300 g) were purchased from Harlan-Olac (Bicester, U.K.). Male rats were prepared for intravital microscopy. Briefly, following sedation with i.m. Hypnorm (fentanyl-fluanisone mixture, 0.1 ml; Janssen-Cilag, High Wycombe, U.K.), animals were anesthetized with i.v. sodium pentobarbitone (30 mg/kg loading dose followed by 30 mg/kg/h; Rhône Mérieux, Harlow, U.K). The animals were maintained at 37° C. on a custom-built heated microscope stage. Following midline abdominal incision, the mesentery adjoining the terminal ileum was carefully arranged over a glass window in the microscope stage and pinned in position. The mesentery was kept warm and moist by continuous application of Tyrode's balanced salt solution (Sigma Aldrich). Mesenteric post-capillary venules (15-40 μm in diameter) were viewed on an upright fixed-stage microscope (Axioskop F S, Carl Zeiss, Welwyn Garden City, U.K.) fitted with water immersion objectives. Images were captured with a digital camera (C5810-01, Hamamatsu Photonics U.K., Enfield, U.K.) for viewing on a monitor (PVM-1453 MD, Sony U.K., Weybridge, U.K.) and storage by videocassette recorder (AG-MD830E, Panasonic U.K., Bracknell, U.K.). […] Firmly adherent leukocytes were defined as those that remained stationary for at least 30 s within a 100-μm segment of a venule. Extravasated leukocytes were defined as those in the perivenular tissue adjacent to, but remaining within a distance of 150 μm of a 100-μm length of vessel segment under study. After baseline readings of rolling, adhesion and transmigration were taken; CINC-1 at final concentrations of 10^−9 M, […] or 10^−7M (Peprotech) was applied topically to the mesenteric tissue in the superfusion buffer. Leukocyte responses within the chosen vessels were quantified for up to 180 minutes, during which the topical application of CINC-1 was maintained. In each animal, multiple vessel segments from appropriate vessels were quantified. Videos of migrating cells were constucted for quantitative and mathematical analysis as described above; at the end of certain in vivo experiments, the mesentery was stained with acridine orange (Sigma Aldrich), a nuclear dye, scanned with a 488 nm laser line generated from an Argon laser, and observed by confocal microscopy (LSM5 PASCAL, Axioskop II FS, Carl Zeiss) to verify that migrating cells were neutrophils.
Mathematical Modeling of Continuous Gradients in vivo: The chemokine concentration profile in the mesentery at steady state was predicted using a novel in vivo model based on classical diffusion equations applied on a spherical model of the postcapillary venule, and the assumption that the receptor-dependent transport of the chemokine by the endothelial cells is the main mechanism for generating the gradient the vicinity of postcapillary venules. The steady state solution was calculated for the concentration gradient around a sphere in a homogenous medium, with the two boundary conditions: 1) the concentration far from the sphere is constant, and 2) the chemokine flux across the surface of the sphere also constant. […] Thus, the steady state concentration C at distance r from the capillary wall was calculated as: [formula] […]

Nc1ncnc2c1nc(Br)n2[C@@H]1O[C@@H]2COP(=O)(O)O[C@H]2[C@H]1O [8-Br-cAMP]
effect on neutrophil chemotaxis (angular frequency, movement up the gradient) [1]: augmented | effect on neutrophil fugetaxis (angular frequency, movement down the gradient) [1]: selectively inhibited | sensitivity of T-cell fugetaxis to inhibition, compared with chemotaxis [2]: differentially more sensitive to inhibition

O=c1c(-c2ccc(O)cc2)coc2cc(O)cc(O)c12 [genistein]
sensitivity of T-cell chemotaxis to inhibition, compared with fugetaxis [2]: differentially more sensitive to inhibition

B1: CINC-1: rat IL-8 orthologue, cytokine induced neutrophil chemoattractant-1, signals via CXCR2 (protein, UniProt P14095 25-96, looked up)
Growth-regulated alpha protein: APVANELRCQCLQTVAGIHFKNIQSLKVMPPGPHCTQTEVIATLKNGREACLDPEAPMVQKIVQKMLKGVPK
neutrophil response to superfused chemokine ([3]; 1 nM): minimal neutrophil adhesion to the luminal surface of the venule and transmigration | neutrophil response to superfused chemokine ([3]; 100 nM): accumulation of neutrophils around the vessel without transmigration | mean chemotropism index (MCI) in vivo ([3]; diffusive gradient with peak concentration of 10 nM): +0.32+/−0.06 | mean chemotropism index (MCI) in vivo ([3]; gradient replaced with peak concentration of 100 nM): −0.35+/−0.12 | peak chemokine concentration at which peak transendothelial migration of neutrophils from the blood occurred ([3]; superfusion at 1 nM, 10 nM or 100 nM for 90 minutes): 10 nM
